The results in this text go back to patent US20070298412A1 (ZAKRYTOE AKTSIONERNOE OBSCHESTVO EVROGEN, published 2007).

Series [1] concerns the molecule itself. The experiment in a line: gel filtration (self-association).
Series [2] deals with the molecule itself. The experiment in a line: gel electrophoresis of non-heated samples and gel filtration on Sephadex-100 (homodimer). As for the experimental part:
Under these conditions these FPs migrated as yellow fluorescent band at about 50 kDa. […] Purified protein samples (˜1 mg/ml) were loaded onto a Sephadex-100 column (0.7×60 cm) and eluted with a solution of 50 mM phosphate buffer (pH 7.0) and 100 mM NaCl. EGFP, HcRed1 and DsRed2 (Clontech) were used as monomer, dimer and tetramer standards, respectively.
(SEC sorts molecules by how far they enter the pores of the column.)

B1: S3-2 red fluorescent mutant of hm2CP (other)
chain: MEGGPALFQSDMTFKIFIDGVVNGQKFTIVADGSSKFPHGDFNVHAVCETGKLPMSWKPICHLIQYGEPFFARYPNGISHFAQECFPEGLSIDRTVRFENDGTMTSHHTYELDGTCVVSRITVNCDGFQPDGPIMRDQLVDILPNETHMFPHGPNAVRQLAFIGFTTADGGLMMSHFDSKMTFNGSRAIKIPGPHFVTTITKQMKDTSDKRDHVCQREVTYAHSVPRITSAI
notes: No tag is stated for the gel-filtration sample; also called S3-2 red fluorescent protein
Regarding B1, the binding result in series [1] is reported as “no binding”.

B2: phiYFP, yellow fluorescent protein from Phialidium sp. (wild type) (other)
chain: MSSGALLFHGKIPYVVEMEGNVDGHTFSIRGKGYGDASVGKVDAQFICTTGDVPVPWSTLVTTLTYGAQCFAKYGPELKDFYKSCMPEGYVQERTITFEGDGVFKTRAEVTFENGSVYNRVKLNGQGFKKDGHVLGKNLEFNFTPHCLYIWGDQANHGLKSAFKIMHEITGSKEDFIVADHTQMNTPIGGGPVHVPEYHHITYHVTLSKDVTDHRDNMSLVETVRAVDCRKTYL
notes: Recombinant protein from the whole coding region, expressed in E. coli and purified on TALON; Found to be a homodimer by gel electrophoresis of non-heated samples and by gel filtration; not shown: N-terminal six-histidine tag from the pQE30 vector
In the case of B2, the binding result in series [2] is “binds”.

B3: phiYFP-Y1 (phiYFP mutant with S2P, E174G, I201M) (other)
chain: MPSGALLFHGKIPYVVEMEGNVDGHTFSIRGKGYGDASVGKVDAQFICTTGDVPVPWSTLVTTLTYGAQCFAKYGPELKDFYKSCMPEGYVQERTITFEGDGVFKTRAEVTFENGSVYNRVKLNGQGFKKDGHVLGKNLEFNFTPHCLYIWGDQANHGLKSAFKIMHEITGSKGDFIVADHTQMNTPIGGGPVHVPEYHHMTYHVTLSKDVTDHRDNMSLVETVRAVDCRKTYL
notes: Found to be a homodimer
For B3, in series [2], the binding result was “binds”.

B4: phiYFP-M1 (phiYFP mutant with E88D, V103N, M166C, E174G, I201M, T202S, T206K, V221K) (other)
chain: MSSGALLFHGKIPYVVEMEGNVDGHTFSIRGKGYGDASVGKVDAQFICTTGDVPVPWSTLVTTLTYGAQCFAKYGPELKDFYKSCMPDGYVQERTITFEGDGNFKTRAEVTFENGSVYNRVKLNGQGFKKDGHVLGKNLEFNFTPHCLYIWGDQANHGLKSAFKICHEITGSKGDFIVADHTQMNTPIGGGPVHVPEYHHMSYHVKLSKDVTDHRDNMSLKETVRAVDCRKTYL
notes: No tag is stated for the gel-filtration sample
As to B4, the binding result in series [1] is listed as “no binding”.

B5: phiYFP-M0 (phiYFP mutant with S2P, V103N, M166R, E174G, Y198N, I201M, T202S, T206K, V221K) (other)
chain: MPSGALLFHGKIPYVVEMEGNVDGHTFSIRGKGYGDASVGKVDAQFICTTGDVPVPWSTLVTTLTYGAQCFAKYGPELKDFYKSCMPEGYVQERTITFEGDGNFKTRAEVTFENGSVYNRVKLNGQGFKKDGHVLGKNLEFNFTPHCLYIWGDQANHGLKSAFKIRHEITGSKGDFIVADHTQMNTPIGGGPVHVPENHHMSYHVKLSKDVTDHRDNMSLKETVRAVDCRKTYL
notes: No tag is stated for the tested sample
With B5, the binding result in series [1] is recorded as “no binding”.
